System: peptide library, one residue held at a place counted from the S/T acceptor
Experiment: relative phosphorylation of the sub-library (ratio to the mean residue at this position); higher = residue favoured
Summary of the method: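 Relative sub-library phosphorylation is the ratio of each sub-library's signal to the mean residue at that position. The signal came from phosphorimaging of spots on streptavidin membranes, quantified by densitometry, after purified recombinant kinases reacted with biotinylated degenerate peptide sub-libraries in 384-well plates. Reactions held 50 μM peptide and 50 μM ATP spiked with γ-32P-ATP for 90 min under kinase-specific conditions.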

Chain of PIM2, construct: Full length with a 14aa C-terminal extension from Gateway cloning, human (Q9P1W9 whole entry, looked up): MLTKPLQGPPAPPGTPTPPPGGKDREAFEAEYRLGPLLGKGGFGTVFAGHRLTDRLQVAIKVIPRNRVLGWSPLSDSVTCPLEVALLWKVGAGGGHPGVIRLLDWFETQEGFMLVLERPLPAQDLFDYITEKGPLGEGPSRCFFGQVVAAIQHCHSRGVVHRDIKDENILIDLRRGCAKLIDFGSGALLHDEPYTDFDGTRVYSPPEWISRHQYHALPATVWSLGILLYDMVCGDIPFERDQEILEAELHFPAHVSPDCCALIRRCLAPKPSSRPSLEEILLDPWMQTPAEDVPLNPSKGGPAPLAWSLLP
Chain of ERN1, construct: aa468-end, human (O75460 468-977, looked up): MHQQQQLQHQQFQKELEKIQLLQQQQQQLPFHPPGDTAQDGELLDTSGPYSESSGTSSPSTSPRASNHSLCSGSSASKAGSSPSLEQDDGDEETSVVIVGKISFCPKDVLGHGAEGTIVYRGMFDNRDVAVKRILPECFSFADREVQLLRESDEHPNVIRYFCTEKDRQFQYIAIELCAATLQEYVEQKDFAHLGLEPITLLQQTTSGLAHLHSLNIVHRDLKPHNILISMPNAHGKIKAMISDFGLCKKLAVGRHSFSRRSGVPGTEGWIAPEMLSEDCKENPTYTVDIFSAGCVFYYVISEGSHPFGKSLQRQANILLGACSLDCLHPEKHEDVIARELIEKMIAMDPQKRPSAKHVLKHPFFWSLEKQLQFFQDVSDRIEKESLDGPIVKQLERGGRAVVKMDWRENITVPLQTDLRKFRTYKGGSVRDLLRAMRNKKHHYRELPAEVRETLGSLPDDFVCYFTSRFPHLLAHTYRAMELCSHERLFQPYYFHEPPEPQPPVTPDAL

PIM2, construct: Full length with a 14aa C-terminal extension from Gateway cloning, human (from UniProt Q9P1W9)
relative phosphorylation
Conditions | at +1 | at +2 | at +3 | at +4 | at -1 | at -2 | at -3 | at -4 | at -5
A fixed | 1.17 | 0.889 | 0.802 | 0.851 | 0.852 | 0.568 | 0.578 | 0.935 | 0.695
D fixed | 0.638 | 0.729 | 0.859 | 0.833 | 0.593 | 0.32 | 0.269 | 0.497 | 0.413
E fixed | 0.834 | 0.713 | 0.752 | 0.764 | 0.587 | 0.343 | 0.295 | 0.666 | 0.413
F fixed | 0.653 | 0.75 | 0.909 | 0.874 | 0.887 | 0.911 | 0.388 | 0.776 | 0.547
G fixed | 3.18 | 0.978 | 0.99 | 1.08 | 0.814 | 0.418 | 0.43 | 0.891 | 0.789
H fixed | 0.871 | 1.48 | 1.31 | 1.04 | 1.16 | 2.64 | 0.78 | 1.01 | 1.01
I fixed | 0.723 | 0.606 | 0.709 | 0.841 | 0.699 | 0.541 | 0.366 | 0.837 | 0.588
K fixed | 1.14 | 1.33 | 1.24 | 1.28 | 1.33 | 1.7 | 1.91 | 1.9 | 2.91
L fixed | 0.663 | 0.664 | 0.721 | 0.793 | 0.912 | 0.594 | 0.381 | 0.79 | 0.608
M fixed | 0.861 | 0.71 | 0.783 | 0.845 | 0.921 | 0.649 | 0.397 | 0.985 | 0.6
N fixed | 1.11 | 1.07 | 0.958 | 1.11 | 1.18 | 1.04 | 0.48 | 0.988 | 0.728
P fixed | 0.727 | 1.13 | 1.04 | 1.3 | 1.86 | 0.524 | 0.453 | 0.755 | 0.791
Q fixed | 1.04 | 1.02 | 1.1 | 1.05 | 0.875 | 0.787 | 0.591 | 0.948 | 0.807
R fixed | 1.34 | 2.57 | 2.27 | 1.62 | 1.55 | 3.21 | 8.41 | 2.6 | 4.14
V fixed | 0.765 | 0.65 | 0.695 | 0.793 | 0.871 | 0.571 | 0.405 | 0.906 | 0.642
W fixed | 0.626 | 0.867 | 0.955 | 1.05 | 0.701 | 1.07 | 0.475 | 0.738 | 0.576
Y fixed | 0.66 | 0.848 | 0.923 | 0.885 | 1.2 | 1.11 | 0.395 | 0.777 | 0.741
pThr fixed | 0.857 | 0.654 | 0.668 | 0.888 | 0.379 | 0.35 | 0.342 | 0.632 | 0.471
pTyr fixed | 0.608 | 0.69 | 0.846 | 0.748 | 0.862 | 0.62 | 0.325 | 0.545 | 0.522

ERN1, construct: aa468-end, human (from UniProt O75460)
relative phosphorylation
Conditions | at +1 | at +2 | at +3 | at +4 | at -1 | at -2 | at -3 | at -4 | at -5
A fixed | 0.993 | 0.597 | 0.656 | 0.755 | 1.28 | 1.07 | 1.06 | 1.11 | 1.07
D fixed | 0.229 | 0.173 | 0.375 | 0.276 | 0.33 | 0.672 | 0.705 | 0.813 | 0.747
E fixed | 0.263 | 0.158 | 0.201 | 0.26 | 0.373 | 0.869 | 0.801 | 0.831 | 0.781
F fixed | 0.67 | 0.858 | 1.32 | 1.07 | 0.966 | 1.13 | 0.781 | 0.708 | 0.873
G fixed | 1.15 | 0.662 | 0.791 | 0.892 | 0.804 | 1.26 | 1.59 | 1.29 | 1.25
H fixed | 0.835 | 1.9 | 1.31 | 1.03 | 1.75 | 1.03 | 1.03 | 0.948 | 1.07
I fixed | 0.632 | 1.08 | 0.76 | 0.849 | 0.562 | 0.794 | 0.906 | 0.949 | 1.04
K fixed | 2.21 | 1.7 | 1.45 | 2.02 | 1.89 | 1.14 | 1.2 | 1.48 | 1.49
L fixed | 0.643 | 1.21 | 0.973 | 0.766 | 0.658 | 0.857 | 0.854 | 0.87 | 0.97
M fixed | 1.03 | 1.14 | 0.85 | 0.929 | 0.937 | 0.9 | 0.818 | 0.937 | 0.871
N fixed | 1.14 | 0.559 | 0.793 | 0.795 | 0.844 | 0.933 | 0.926 | 1.03 | 0.956
P fixed | 0.258 | 0.347 | 0.525 | 0.851 | 0.833 | 1.43 | 1.08 | 0.981 | 0.909
Q fixed | 1.2 | 0.65 | 0.683 | 0.912 | 0.986 | 0.958 | 0.833 | 0.878 | 0.822
R fixed | 3.41 | 2.73 | 3.08 | 2.09 | 1.86 | 1.29 | 1.77 | 1.45 | 1.28
V fixed | 0.78 | 1.19 | 0.726 | 0.85 | 1.02 | 0.982 | 0.938 | 0.911 | 0.971
W fixed | 0.775 | 0.963 | 1.19 | 1.45 | 0.74 | 0.724 | 0.813 | 0.924 | 0.926
Y fixed | 0.778 | 1.08 | 1.31 | 1.2 | 1.16 | 0.951 | 0.906 | 0.888 | 0.963
pThr fixed | 0.381 | 0.299 | 0.315 | 0.372 | 0.448 | 0.996 | 1.2 | 0.999 | 0.991
pTyr fixed | 0.3 | 0.61 | 0.58 | 0.345 | 0.571 | 1.16 | 1 | 0.776 | 0.916

— the supplement of paper PMC9876800
